The record followed here is PMC10742460, “Lambda CI Binding to Related Phage Operator Sequences Validates Alignment Algorithm and Highlights the Importance of Overlooked Bonds”.

B1: VOL3 (VT2-SA OL3) (dsDNA)
DNA 1: GGTTATTATGGTACAACGCTTTGTATTTTGCAAGTGC
DNA 2: GCACTTGCAAAATACAAAGCGTTGTACCATAATAACC
B2: LOR3 (lambda OR3) (dsDNA)
DNA 1: GGTTATTATGGTATCACCGCAAGGGATATGCAAGTGC
DNA 2: GCACTTGCATATCCCTTGCGGTGATACCATAATAACC
B3: LOL1 (lambda OL1) (dsDNA)
DNA 1: GGTTATTATGGTATCACCGCCAGTGGTATGCAAGTGC
DNA 2: GCACTTGCATACCACTGGCGGTGATACCATAATAACC
B4: LOL2 (lambda OL2) (dsDNA)
DNA 1: GGTTATTATGGCAACACCGCCAGAGATATGCAAGTGC
DNA 2: GCACTTGCATATCTCTGGCGGTGTTGCCATAATAACC
B5: VOR1 (VT2-SA OR1) (dsDNA)
DNA 1: GGTTATTATGGAAGTACATATTGTATTTTGCAAGTGC
DNA 2: GCACTTGCAAAATACAATATGTACTTCCATAATAACC
B6: LOL3 (lambda OL3) (dsDNA)
DNA 1: GGTTATTATGGTATCACCGCAGATGGTTTGCAAGTGC
DNA 2: GCACTTGCAAACCATCTGCGGTGATACCATAATAACC
B7: SOR2 (Stx2I OR2) (dsDNA)
DNA 1: GGTTATTATGGATGAGTACGATACTAAATGCAAGTGC
DNA 2: GCACTTGCATTTAGTATCGTACTCATCCATAATAACC
B8: VOR3 (VT2-SA OR3) (dsDNA)
DNA 1: GGTTATTATGGTATTACGCTCTGTACTGTGCAAGTGC
DNA 2: GCACTTGCACAGTACAGAGCGTAATACCATAATAACC
B9: VOL1 (VT2-SA OL1) (dsDNA)
DNA 1: GGTTATTATGGTAGTACGATATGTACTTTGCAAGTGC
DNA 2: GCACTTGCAAAGTACATATCGTACTACCATAATAACC
B10: VOR2 (VT2-SA OR2) (dsDNA)
DNA 1: GGTTATTATGGATGCACAATGTGTATTTTGCAAGTGC
DNA 2: GCACTTGCAAAATACACATTGTGCATCCATAATAACC
B11: LOR2 (lambda OR2) (dsDNA)
DNA 1: GGTTATTATGGTAACACCGTGCGTGTTGTGCAAGTGC
DNA 2: GCACTTGCACAACACGCACGGTGTTACCATAATAACC
B12: SOL1 (Stx2I OL1) (dsDNA)
DNA 1: GGTTATTATGGCAATGATGATTTCATGCTGCAAGTGC
DNA 2: GCACTTGCAGCATGAAATCATCATTGCCATAATAACC
B13: SOL3 (Stx2I OL3) (dsDNA)
DNA 1: GGTTATTATGGGCTTCTTGAATAACAGCTGCAAGTGC
DNA 2: GCACTTGCAGCTGTTATTCAAGAAGCCCATAATAACC
B14: SOL2 (Stx2I OL2) (dsDNA)
DNA 1: GGTTATTATGGTGTAATATTTTCTTACATGCAAGTGC
DNA 2: GCACTTGCATGTAAGAAAATATTACACCATAATAACC
B15: SOR1 (Stx2I OR1) (dsDNA)
DNA 1: GGTTATTATGGTTTCAGTTCAACCATAATGCAAGTGC
DNA 2: GCACTTGCATTATGGTTGAACTGAAACCATAATAACC
B16: VOL2 (VT2-SA OL2) (dsDNA)
DNA 1: GGTTATTATGGCAATACAATTTGTTCTATGCAAGTGC
DNA 2: GCACTTGCATAGAACAAATTGTATTGCCATAATAACC
B17: LOR1 (lambda OR1) (dsDNA)
DNA 1: GGTTATTATGGTACCTCTGGCGGTGATATGCAAGTGC
DNA 2: GCACTTGCATATCACCGCCAGAGGTACCATAATAACC
B18: SOR3 (Stx2I OR3) (dsDNA)
DNA 1: GGTTATTATGGGGGCGAATTCTTTGCGCTGCAAGTGC
DNA 2: GCACTTGCAGCGCAAAGAATTCGCCCCCATAATAACC

For one series, the target named is T1, lambda CI repressor (Bacteriophage lambda, UniProt P03034 1-237). Description: EMSA; apparent Kd; EMSA: 10 mM HEPES, 150 mM NaCl, pH 7.4; 50 nM DNA, 0.4-40 uM CI; 20 min at room temperature; 10% polyacrylamide gel, 1x TBE pH 8.3, SYBR Safe stain. The conditions noted are these: protein: recombinant; tags: His-tag, TEV cleavage site with linker (pET 29b+); chain copies: 2; label: none (SYBR Safe stain).
T1 sequence (P03034 whole entry): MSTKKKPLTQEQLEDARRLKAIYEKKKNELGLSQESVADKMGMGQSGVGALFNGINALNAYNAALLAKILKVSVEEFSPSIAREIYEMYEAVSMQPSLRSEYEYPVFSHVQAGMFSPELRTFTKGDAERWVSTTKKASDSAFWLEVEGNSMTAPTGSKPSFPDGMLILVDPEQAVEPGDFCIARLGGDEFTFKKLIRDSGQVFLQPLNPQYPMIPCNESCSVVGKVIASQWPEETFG
For B1, the Kd turned out to be 3.67 ± 0.1 µM.

As for B2, the Kd came out at 3.07 ± 1.13 µM.

With B3, the Kd was found to be 0.21 ± 0.02 µM.

Take B4: the Kd was 1.5 ± 0.17 µM.

Consider B5, for which the Kd came out at 5.15 ± 2.39 µM.

Take B6: the Kd was 1.21 ± 0.08 µM.

Take B7: the Kd was determined as 7.67 ± 2.62 µM.

B8: the Kd worked out at 4.41 ± 0.99 µM.

Consider B9, for which the Kd worked out at 5.37 ± 1.16 µM.

For B10, the Kd was 6.39 ± 2.75 µM.

Take B11: the Kd stood at 1.55 ± 0.29 µM.

B12: the Kd is 7.11 ± 1.27 µM.

As for B13, the Kd came out at 4.26 ± 0.27 µM.

B14: the Kd turned out to be 3.68 ± 0.47 µM.

On to B15, for which the Kd turned out to be 7.27 ± 2.39 µM.

As for B16, the Kd worked out at 4.02 ± 0.16 µM.

For the molecule B17, the Kd worked out at 0.35 ± 0.03 µM.

The target in a further series is T1, lambda CI repressor. Description: EMSA; apparent Kd; text gives error 3.10; EMSA: 10 mM HEPES, 150 mM NaCl, pH 7.4; 50 nM DNA, 0.4-40 uM CI; 20 min at room temperature; 10% polyacrylamide gel, 1x TBE pH 8.3, SYBR Safe stain. The conditions noted are these: protein: recombinant; tags: His-tag, TEV cleavage site with linker (pET 29b+); chain copies: 2; label: none (SYBR Safe stain).
Turning to B18, the Kd turned out to be 7.68 ± 3.09 µM.
